Assay results reported in article PMC3279516, “Superhelical Architecture of the Myosin Filament-Linking Protein Myomesin with Unusual Elastic Properties” (PLoS Biology, 2012).

Assays:
[1] = biological target: the molecule itself; test: small angle X-ray scattering (SAXS); 4–15 mg/ml, 25 mM Tris/HCl pH 7.5, 150 mM NaCl, 290 K; extrapolated to infinite dilution; mass by comparison with bovine serum albumin
[2] = biological target: the molecule itself; test: crystal structure; My11–My13 at 10 mg/ml; 0.1 M MES pH 6, 0.22 M lithium sulfate, 13% PEG 8000; 3.5 Å; molecular replacement with the (My13)2 dimer module of 2R15

Protein	stoichiometry N [1]	binding result [2]
myomesin My9–My13 (residues 1141–1666) (domain or fragment, human, UniProt P52179 1141-1666, looked up, myomesin (MYOM1), human, Ig domains My9–My13, residues 1141–1666 of MYOM1_HUMAN; Vector pET151/D-TOPO with N-terminal His6 and TEV site; also called C-terminal myomesin filament; My9–My10–My11–My12–(My13)2–My12′–My11′–My10′–My9′; source: E. coli BL21 (DE3) CodonPlus-RP, purified (Ni-NTA, size exclusion chromatography)) TKEVVVNVDDDGVISLNFECDKMTPKSEFSWSKDYVSTEDSPRLEVESKGNKTKMTFKDLGMDDLGIYSCDVTDTDGIASSYLIDEEELKRLLALSHEHKFPTVPVKSELAVEILEKGQVRFWMQAEKLSGNAKVNYIFNEKEIFEGPKYKMHIDRNTGIIEMFMEKLQDEDEGTYTFQLQDGKATNHSTVVLVGDVFKKLQKEAEFQRQEWIRKQGPHFVEYLSWEVTGECNVLLKCKVANIKKETHIVWYKDEREISVDEKHDFKDGICTLLITEFSKKDAGIYEVILKDDRGKDKSRLKLVDEAFKELMMEVCKKIALSATDLKIQSTAEGIQLYSFVTYYVEDLKVNWSHNGSAIRYSDRVKTGVTGEQIWLQINEPTPNDKGKYVMELFDGKTGHQKTVDLSGQAYDEAYAEFQRLKQAAIAEKNRARVLGGLPDVVTIQEGKALNLTCNVWGDPPPEVSWLKNEKALASDDHCNLKFEAGRTAYFTINGVSTADSGKYGLVVKNKYGSETSDFTVSVFIP	2	
myomesin My11–My13 (residues 1352–1666) (domain or fragment, human, UniProt P52179 1352-1666, looked up, myomesin (MYOM1), human, Ig domains My11–My13, residues 1352–1666 of MYOM1_HUMAN; Vector pET151/D-TOPO with N-terminal His6 and TEV site; also called My11–My13 triplet; source: E. coli BL21 (DE3) CodonPlus-RP, purified (Ni-NTA, size exclusion chromatography)) WIRKQGPHFVEYLSWEVTGECNVLLKCKVANIKKETHIVWYKDEREISVDEKHDFKDGICTLLITEFSKKDAGIYEVILKDDRGKDKSRLKLVDEAFKELMMEVCKKIALSATDLKIQSTAEGIQLYSFVTYYVEDLKVNWSHNGSAIRYSDRVKTGVTGEQIWLQINEPTPNDKGKYVMELFDGKTGHQKTVDLSGQAYDEAYAEFQRLKQAAIAEKNRARVLGGLPDVVTIQEGKALNLTCNVWGDPPPEVSWLKNEKALASDDHCNLKFEAGRTAYFTINGVSTADSGKYGLVVKNKYGSETSDFTVSVFIP		binds
